Substrate: O=[N+]([O-])c1ccc(Cl)c([N+](=O)[O-])c1
Assay: purified protein
Assay type: biochemical, Saccharina japonica
Settings: GSH co-substrate (30 μL of 60 mM in 900 μL)
[1] = 0.1 M potassium phosphate pH 7.0, 20 °C
[2] = 0.1 M potassium phosphate pH 8.0, 20 °C

Protein	Km [1] [µM]	kcat [1] [s⁻¹]	kcat/Km [1] [M⁻¹ s⁻¹]	Km [2] [µM]	kcat [2] [s⁻¹]	kcat/Km [2] [M⁻¹ s⁻¹]
SjGST20 (Saccharina japonica) (protein) MVPVFNYFGVPARGEATRVALAVAGVEFVDKIIPYAELHASGFRAVPVYQLDGTNYTQSTALLRYAGKLGGTYPEDPLEALKVDEIVMMVEDVFINIFADMKEKDEAKKLATHQALIAGKVKYLIEDIASKLEANTASPFCVGPSLTIADIMVHAMIATFQAGFLVGVPTTTAEDICPSLKGLDDAVMEHPKVKAYYASKA	2706	9.83	3630			
SjGST22 (Saccharina japonica) (protein) MAPKLVLTYFDIAGAAEAVRWALEQSGLEWEDKRLTRDEFGALKPSLPNGQVPILEVDGFVLAQSQAILRYVGKLGGLYPSDDLEAAKCDSVLDCATDFGINIRPSFMEKDQAKKMEMREDLAANFIPKWLASMEKQLASTGGIYFGEKMTVADIMIALRVKGLKGGVLDGVPTTIADSYPNLIALHDSIVGEPKIAAFIAKHAK				674	0.478	709

Source: publication PMC10506224, “Isolation and characterization of glutathione S-transferase genes and their transcripts in Saccharina japonica (Laminariales, Phaeophyceae) during development and under abiotic stress” (BMC Plant Biology, 2023)
